# Laboratory results from the supplement of paper PMC10126150.
# ± gives the standard deviation of the averaged measurements.
# Tested on: ATP
# Experiment: switch fluorescence ratio, 500 uM ATP over buffer (Cy3 cluster intensity, sum of 5 cycles each) (fold (ratio)); higher = stronger signal-on switching upon ATP binding; sequences stand for … in TCGTCGGCAGCGTCAGATGTGTATAAGAGACAGTTTTTTTTTTTTTTTTTTTTTTTTT…TC
# Conditions: aptamer strand: ATP DNA aptamer (quencher-CACCTGGGGGAGTATTGCGGAGGAAGG + anchor), 100 nM annealed; ATP concentration: 500 uM
# How it was run: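 Per cluster, summed Cy3 intensity from the target cycles was divided by that from the buffer cycles to give the fluorescence ratio, then averaged per switch-domain sequence. Clusters outside 100-1000 RFU were excluded. The Cy3-labelled switching-strand clusters, on a modified Illumina MiSeq flow-cell, were annealed to 100 nM quencher-labelled ATP aptamer and imaged in selection buffer, then after 15 min with 500 uM ATP at 22 °C, for five cycles with NaOH stripping and re-annealing between them.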
# 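Also: ATP exposure 15 min at 22 °C before imaging.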
row,Sequence,switch fluorescence ratio
1,AACTGTTCTT,1.01 ± 0.011
2,CTGGAGACAG,1.07 ± 0.018
3,AGCTGCACAT,1.048 ± 0.0022
4,AGTAAGGGAG,1.01 ± 0.082
5,TCCAGCGCAC,3.81 ± 1.1
6,CGGTTCGGTG,0.981 ± 0.014
7,TATTCAGGGT,1.01 ± 0.028
8,CGGGGATGTC,1.05 ± 0.014
9,AATAAAGAGT,0.974 ± 0.015
10,CCATTTGAGG,0.987 ± 0.059
11,ATTTCGGGGT,1.01 ± 0.042
12,GGAGGTTGGG,0.958 ± 0.013
13,CTTCTCTTCA,1.02 ± 0.03
14,CTGAGTGGGA,1.02 ± 0.013
15,TACGGGAACG,1.06 ± 0.018
16,CCGGGGGTTC,1.05 ± 0.062
17,AAGTTTCGAG,0.983 ± 0.017
18,ACGCCGGGGT,1.3 ± 0.51
19,GACGTAAAAG,1.097 ± 0.0096
20,ATGTCCGAAT,1.02 ± 0.012
21,ACTTGGACGC,1.14 ± 0.044
22,GAGGGGGGTC,1.04 ± 0.064
23,GAGATACTCT,1.03 ± 0.012

row,Sequence,switch fluorescence ratio
1,GTCTAAGGGG,1.11 ± 0.25
2,TGAATGGTCT,1.01 ± 0.03
3,TGAAATGGCT,0.997 ± 0.034
4,CATTTTAGGC,1.04 ± 0.067
5,GAGAATGGCA,0.964 ± 0.028
6,ACCGAGTTCT,0.99 ± 0.057
7,GACGTTTTAG,0.993 ± 0.052
8,CGGGTTTGTG,0.973 ± 0.032
9,TGCTGAGGGC,1.01 ± 0.013
10,TTTCCCGGAT,1.1 ± 0.14
11,CCGGGGGCTG,1.04 ± 0.068
12,GTGAAAGATT,1.02 ± 0.041
13,AGGAATCAAG,0.9968 ± 0.0071
14,ACGGAGTAAA,0.99939 ± 0.00086
15,TATGGGCGTC,0.999 ± 0.011
16,AGTTAGGGTA,0.9744 ± 0.0059
17,TTTCCGAATG,1.13 ± 0.026
18,TTACGGTGAA,1.07 ± 0.072
19,ATTAGTCAGG,1.03 ± 0.019
20,CTTTCGGGGG,1.14 ± 0.2
21,TCGTATTTGG,0.993 ± 0.032
22,TTTATGCCAG,0.946 ± 0.053
23,TTACTTTTCG,1.03 ± 0.057

row,Sequence,switch fluorescence ratio
1,ACACATTGGA,1.03 ± 0.0023
2,AGACGATGAG,0.933 ± 0.026
3,TTTTGCCGAT,0.989 ± 0.023
4,TGTTGTAGCG,0.975 ± 0.037
5,AATAAAGGAT,1 ± 0.017
6,TCAAGCTCAT,0.974 ± 0.023
7,ATATGGGGTG,1.05 ± 0.046
8,GACCTTGATT,1.03 ± 0.029
9,GGGTAGGGGG,0.989 ± 0.02
10,TGGATGTTTA,1.03 ± 0.024
11,CTGTTGCCTG,0.974 ± 0.041
12,TATTAGTTTG,0.997 ± 0.024
13,TCAAGTTTGG,1.02 ± 0.018
14,AAAGGCGTCA,1.01 ± 0.016
15,GACTATTAGC,0.984 ± 0.028
16,TCATGTTTTG,0.9969 ± 0.0032
17,TGGAGAGGGT,0.976 ± 0.0099
18,ATGGATTTT,1.001 ± 0.0019
19,TGGCCGGCTG,1 ± 0.074
20,AGAAAGGGTG,1.14 ± 0.074
21,TACCCGCGCG,1.026 ± 0.003
22,TTGGGCGGTT,1.13 ± 0.25
23,GAGTAGAGGG,0.954 ± 0.014

row,Sequence,switch fluorescence ratio
1,CAAATAGTCG,1.01 ± 0.027
2,CAATCTGCGC,1.07 ± 0.043
3,GGTTAGTTGG,0.978 ± 0.027
4,AGTGCCGGGA,1.04 ± 0.034
5,GGCTGGCAGT,0.988 ± 0.015
6,GTTGATAGTA,0.993 ± 0.031
7,TGTGTTTCGG,0.9799 ± 0.0082
8,AGGAATTGAT,1.13 ± 0.27
9,CAGGTATGAA,1 ± 0.02
10,GCCTGCTAGC,1.008 ± 0.007
11,CCGTGTGGCT,1.027 ± 0.0022
12,TGGGGTTTGC,0.991 ± 0.032
13,GTTTTTTGGT,0.982 ± 0.03
14,TGGGTGTTGG,1.01 ± 0.057
15,GGTGATGGTG,0.976 ± 0.047
16,CTGGAATGGG,1.02 ± 0.056
17,GGGTAGTGAG,0.999 ± 0.02
18,TATTAAGAGG,0.98 ± 0.018
19,TCAAACTGTT,1.08 ± 0.025
20,GTAAGTAAGA,1.03 ± 0.017
21,AGGGTGTGGT,0.9841 ± 0.0039
22,GGACAAGAGA,0.996 ± 0.038
23,TAAAGGCGTG,0.96 ± 0.022

row,Sequence,switch fluorescence ratio
1,CGGTTTGGGT,0.9931 ± 0.0043
2,AGAGTGCCTG,1.04 ± 0.058
3,TATTGGGTTC,0.965 ± 0.011
4,ATTTGCGTAC,1.277 ± 0.0018
5,TATTTCCGGG,1.012 ± 0.0045
6,TTTGTGAGAA,1.02 ± 0.0045
7,GGAGCGGACG,1 ± 0.016
8,TGGATAGTGT,0.998 ± 0.011
9,CGAAGTACAT,1.16 ± 0.0019
10,AGTCATCGGG,0.9728 ± 0.0011
11,TATATGGTGT,1.02 ± 0.024
12,GGGTTAGGGA,0.996 ± 0.025
13,TTTTTGGCTG,0.9818 ± 0.0049
14,GCTACGACGG,1.05 ± 0.012
15,ATATGGATTG,1 ± 0.015
16,AAATGCTTAG,0.995 ± 0.011
17,ATTGTCTAGC,0.999 ± 0.019
18,ATGTGGATGC,0.98 ± 0.045
19,TAATCGCCAA,1.05 ± 0.0039
20,AGGAGGGCGA,0.9582 ± 0.002
21,GGTGTGCTGT,0.957 ± 0.031
22,GACAGGGGGA,1.035 ± 0.0072
23,TATAATACAA,1.024 ± 0.0097

row,Sequence,switch fluorescence ratio
1,TTTTTAAGGC,1.02 ± 0.032
2,GCATGGCGGC,1.01 ± 0.019
3,TGCATTTATG,1.02 ± 0.043
4,AGTTGGATGC,0.965 ± 0.068
5,TTTCCACCGA,1.14 ± 0.16
6,TGATCGTGAG,1.02 ± 0.017
7,GGGATTTTGG,0.973 ± 0.026
8,GATCGTACTT,1.08 ± 0.015
9,GTATTAGTAA,1.006 ± 0.0038
10,AGTAAATAGT,1.0008 ± 3.6e-05
11,AATATTTTCC,1.04 ± 0.052
12,GATCGGTGCT,1 ± 0.015
13,ATAGAACTTT,0.9968 ± 0.0095
14,TCTATTATTG,0.98 ± 0.011
15,CCAGAGGGTG,1.45 ± 0.52
16,GCTCTGAGCT,1.05 ± 0.086
17,ACTCGGGCTA,1.59 ± 0.61
18,GCTTGTAGGG,0.969 ± 0.011
19,GACGTTATTG,1.03 ± 0.013
20,GTAAGTGAGC,1.034 ± 0.0026
21,TTTGCCGGGG,1.02 ± 0.06
22,TTCTAAAGGT,1.02 ± 0.04
23,ATGGTTCCTG,1.03 ± 0.078

row,Sequence,switch fluorescence ratio
1,ACACAATTTT,1.01 ± 0.026
2,CACCACGGCA,1.1 ± 0.045
3,GGAGAAGGCG,0.994 ± 0.053
4,TTTTGATTAT,0.978 ± 0.034
5,TATATGATGG,0.982 ± 0.024
6,CAGATTTGGG,1.01 ± 0.035
7,ACTCCATGCG,1.155 ± 0.0036
8,AAGTGGCTTT,1 ± 0.014
9,CGCTTCGGTT,0.963 ± 0.032
10,CGGGTGGGCA,0.945 ± 0.019
11,TATATGCACT,1.07 ± 0.024
12,ATAGCATGTA,0.991 ± 0.01
13,AAAATTTGTG,0.995 ± 0.017
14,CTGGAACAGT,0.976 ± 0.015
15,TATTTTGCCT,1.036 ± 0.01
16,TGGGGGGGGT,1.02 ± 0.18
17,CGGGAGGTAA,0.9863 ± 0.0038
18,AGATGTTTCC,1.04 ± 0.055
19,TGGGTTGGCA,0.987 ± 0.029
